Results published in US20210388081A1 (Memorial Sloan Kettering, published 2021).

Legend:
SLAMF9 protein = SLAMF9 protein (UniProt Q96A28 19-236, limits assumed); experiment: phage clone on SLAMF9 protein
[1] = molecular target: T1, FcRL1, overexpressed on 3T3 cells (UniProt Q96LA6 17-429, limits assumed); experiment: phage clone on 3T3-FcRL1 cells
T1 construct: whole, on cells
T1 sequence (looked up): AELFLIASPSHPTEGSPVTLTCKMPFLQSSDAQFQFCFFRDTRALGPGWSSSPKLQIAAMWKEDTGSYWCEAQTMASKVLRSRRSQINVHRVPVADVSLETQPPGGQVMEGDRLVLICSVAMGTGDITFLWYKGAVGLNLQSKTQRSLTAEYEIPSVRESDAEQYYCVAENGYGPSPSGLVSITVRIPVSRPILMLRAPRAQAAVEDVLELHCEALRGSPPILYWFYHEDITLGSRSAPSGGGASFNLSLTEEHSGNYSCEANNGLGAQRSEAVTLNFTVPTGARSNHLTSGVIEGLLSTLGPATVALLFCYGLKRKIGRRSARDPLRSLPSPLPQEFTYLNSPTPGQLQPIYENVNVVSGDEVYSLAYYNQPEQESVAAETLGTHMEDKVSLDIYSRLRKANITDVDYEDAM

[2] = molecular target: T2, FcRL6, overexpressed on 3T3 cells (UniProt Q6DN72 20-434, limits assumed); experiment: phage clone on 3T3-FcRL6 cells
T2 construct: whole, on cells
T2 sequence (looked up): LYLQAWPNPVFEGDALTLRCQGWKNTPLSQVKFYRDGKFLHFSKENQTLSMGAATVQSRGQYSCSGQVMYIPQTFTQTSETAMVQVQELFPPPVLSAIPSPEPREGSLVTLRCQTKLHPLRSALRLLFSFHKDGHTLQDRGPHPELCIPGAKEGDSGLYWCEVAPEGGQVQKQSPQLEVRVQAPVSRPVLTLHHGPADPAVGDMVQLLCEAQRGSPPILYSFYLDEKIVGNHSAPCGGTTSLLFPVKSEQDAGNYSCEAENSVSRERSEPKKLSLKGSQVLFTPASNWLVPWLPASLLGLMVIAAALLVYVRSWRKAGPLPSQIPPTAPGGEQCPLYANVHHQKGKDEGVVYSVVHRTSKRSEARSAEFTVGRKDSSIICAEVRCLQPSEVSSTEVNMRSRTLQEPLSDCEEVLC

Measured: binding result

SLAMF9 protein, sequence (Q96A28 19-236 limits assumed): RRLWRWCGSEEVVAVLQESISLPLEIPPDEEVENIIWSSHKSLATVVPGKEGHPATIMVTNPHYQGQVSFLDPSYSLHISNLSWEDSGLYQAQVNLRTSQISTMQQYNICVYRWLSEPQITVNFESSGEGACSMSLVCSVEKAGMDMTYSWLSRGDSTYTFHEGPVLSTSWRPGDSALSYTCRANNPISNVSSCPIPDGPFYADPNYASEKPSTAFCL

B1: ET200-006 (scFv)
scFv: SYVLTQPPSVSVAPGKTARITCGGNNIGSKSVHWYQQKPGQAPVVVIHYDSDRPSGIPERFSGSNSGNTATLTISRVEAGDEADYYCQVWDSSSDHPYVFGTGTKVTVLGSRGGGGSGGGGSGGGGSLEMAEVQLVQSGAEVKKPGASVKVSCKASGYTFTTYGISWVRQAPGQGLEWMGWINTYNGHTNYAQKLQGRATMTADTSTNTAYMELRSLRSDDTAVYYCARVIYGSGDYWGQGTLVTVSSTSGQAGQHHHHHHGAYPYDVPDYAS
notes: screened as phage clone; entry is VL-linker-VH-His tag-HA tag
no binding: SLAMF9 protein | [1] | [2]

B2: ET200-097 (scFv)
scFv: LPVLTQPPSVSVSPGQTAIITCSGDKLGEKYVSWYQQKPGQSPVLVIDQDTRRPSGIPERFSGSNSGTTATLTISGTQAMDEADYYCQAWDRGVVFGGGTKLTVLGSRGGGGSGGGGSGGGGSLEMAEVQLVESGGDLVQPGRSLRLSCAASGFTFNDYAMHWVRQAPGKGLEWVSGISWSGNNIGYADSVKGRFTISRDNAKNSLYLQMNSLRAEDTALYYCAKDSIRYGITWGGFDYWGQGTLVTVSSTSGQAGQHHHHHHGAYPYDVPDYAS
notes: as for B1
no binding: SLAMF9 protein | [1] | [2]

B3: ET200-098 (scFv)
scFv: QPVLTQPPSVSKGLRQTATLTCTGNSNNVGNLGVAWLQQHQGHPPKLLSYRNNNRPSGISERLSASRSGNTASLTITGLQPEDEADYYCSAWDSSLSAWVFGGGTKLTVLGSRGGGGSGGGGSGGGGSLEMAEVQLVESGGVVVQPGGSLRLSCAASGFTFDDYAMHWVRQAPGKGLEWVSLINWDGGSTYYADSVKGRFTISRDNSKNSLYLQMNSLRAEDTALYYCAKGMGLRAFDYWGQGTLVTVSSTSGQAGQHHHHHHGAYPYDVPDYAS
notes: as for B1
no binding: SLAMF9 protein | [1] | [2]

B4: ET200-003 (scFv)
scFv: QSVLTQPPSVSVSPGQTASISCSGNKLGTKYVYWYQKRPGQSPVLVMYEDNQRPSGIPERFSGSNSGNTATLTIRGTQTVDEADYYCQAWDSDTFVVFGGGTKVTVLGSRGGGGSGGGGSGGGGSLEMAEVQLVETGGGVVQPGRSLRLSCAASGFTFSSYGMHWVRQAPGKGLEWVAVISHDGSNKYYADSVKGRFTISRDNSKDTLYLQMNSLRGEDTAVYYCARSNQWSGYFSFDYWGQGTLVTVSSTSGQAGQHHHHHHGAYPYDVPDYAS
notes: as for B1
no binding: SLAMF9 protein | [1] | [2]

B5: ET200-100 (scFv)
scFv: NFMLTQPHSVSESPGKTVTISCTRSSGSIASNFVQWYQQRPGSAPTPMIYEDNNRPPGVPDRFSASVDSSSNSASLTISGLKTEDEADYYCQSYDTSNVVFGGGTKLTVLGSRGGGGSGGGGSGGGGSLEMAEVQLVESGGGLVQPGGSLRLSCAASGFTFSSYEMNWVRQAPGKGLEWVSYISSSGSTIYYADSVKGRFTISRDNAKNSLYLQMNSLRAEDTAVYYCARWDYGMDVWGQGTTVTVSSTSGQAGQHHHHHHGAYPYDVPDYAS
notes: as for B1
no binding: SLAMF9 protein | [1] | [2]

B6: ET200-099 (scFv)
scFv: QSVLTQPPSASGTPGQRVTISCSGSSSNIGSNTVNWYQQLPGTAPKLLIYSNDQRPSGVPDRFSGSKSGTSASLAISGLQSEDEADYYCASWDDSLNGRYVFGTGTKVTVLGSRGGGGSGGGGSGGGGSLEMAQVQLVQSGAEVRKPGASVKVSCKTSGYTFSWYAIHWVRQAPGQRLEWMGWINAGNGNTKYSQKFQGRVSLTRDTSASTAYMELSSLRSDDTAVYYCARPDNYGSGGDVFDIWGQGTMVTVSSTSGQAGQHHHHHHGAYPYDVPDYAS
notes: as for B1
no binding: SLAMF9 protein | [1] | [2]

B7: ET200-069 (scFv)
scFv: QSVVTQPPSASGTPGQRVTISCSGSSSNIGSNYVYWYQQLPGTAPKLLIYSNNQRPSGVPDRFSGSKSGTSASLAISGLRSEDEADYYCAAWDDSLSGYVFGTGTKLTVLGSRGGGGSGGGGSGGGGSLEMAQVQLQQWGAGLLKPSETLSLTCAVYGGSFSGYYWSWIRQPPGKGLEWIGEINHSGSTNYNPSLKSRVTISVDTSKNQFSLKLSSVTAADTAVYYCARLYEGGYHGWGSWLSSDSWGQGTLVTVSSTSGQAGQHHHHHHGAYPYDVPDYAS
notes: screened as phage clone; entry is VL-linker-VH-His tag-HA tag; also called ET200-69
no binding: SLAMF9 protein | [1] | [2]

B8: ET200-079 (scFv)
scFv: SYELTQPPSASGTPGQRVTISCSGSSSNIGSNYVYWYQQLPGTAPKLFIYRNNQRPSGVPDRFSGSKSGTSASLAISGLRSEDEADYYCAAWDDSLSGYLFGTGTKVTVLGSRGGGGSGGGGSGGGGSLEMAEVQLVESGGGLVQPGRSLRLSCAASGFTFDDYAMHWVRQAPGKGLEWVSGISWNSGSIGYADSVKGRFTISRDNAKNSLYLQMNSLRAEDTALYYCANGDSNYYYGMDVWGQGTTVTVSSTSGQAGQHHHHHHGAYPYDVPDYAS
notes: as for B1
no binding: SLAMF9 protein | [1] | [2]

B9: ET200-081 (scFv)
scFv: QSALTQPASVSGSPGQSITISCTGTSSDIGGYNYVSWYQQHPGKAPKLMIYDVSNRPSGVSNRFSGSKSGNTASLTISGLQAEDEADYYCISYTRTWNPYVFGSGTKVTVLGSRGGGGSGGGGSGGGGSLEMAEVQLVQSGGGVVQPGGSLRLSCAASGFTFDDYAMHWVRQAPGKGLEWVSLISGDGGSTYYADSVKGRFTISRDNSKNSLYLQMNSLRTEDTALYYCAKDRAAAGYYYYGMDVWGQGTTVTVSSTSGQAGQHHHHHHGAYPYDVPDYAS
notes: as for B1
no binding: SLAMF9 protein | [1] | [2]

B10: ET200-044 (scFv)
scFv: QSVLTQPPSVSVSPGQTATIACSGHKLGDKYASWYQQKSGQSPVLIIYQDNKRPSGIPERFSGSNSGNTATLTISGTQALDEADYYCQAWDSSTYVAFGGGTKLTVLGSRGGGGSGGGGSGGGGSLEMAQVQLQESGPGLVKPSETLSLTCVVSGGSISSSNWWSWVRQPPGKGLEWIGEIYHSGSPNYNPSLKSRVTISVDKSKNQFSLKLSSVTAADTAVYYCARMTTHTFGYDAWGQGTLVTVSSTSGQAGQHHHHHHGAYPYDVPDYAS
notes: as for B1
no binding: SLAMF9 protein | [1] | [2]

B11: ET200-045 (scFv)
scFv: QPVLTQPPSVSVAPGKTATITCGGNNIGSESVHWYHQKPGQAPVLVIYDDAGRPSGIPERFTGSNSGNTATLTISRVEAGDEADYYCQVWDRNSAQFVFGPGTKVTVLGSRGGGGSGGGGSGGGGSLEMAEVQLVQSGAEVKKPGASVKVSCKASGYTFTSYGISWVRQAPGQGLEWMGWISAYNGNTNYAQKLQGRVTMTTDTSTSTAYMELRSLRSDDTAVYYCARGVHLDWWGQGTLVTVSSTSGQAGQHHHHHHGAYPYDVPDYAS
notes: as for B1
no binding: SLAMF9 protein | [1] | [2]

B12: ET200-042 (scFv)
scFv: QSVVTQPPSVSGAPGQTVTISCTGGSSNIGTGYFVNWYQQVPGKAPKLLILGNNNRPSGVPDRLSGSTSGTSASLAITGLQAEDEGTYYCQSYDSSLSGYVFGTGTKVTVLGSRGGGGSGGGGSGGGGSLEMAQVQLQQSGPGLVKPSQTLSLTCGISGDSVSTNSVAWHWIRQSPSRGLEWLGRTYYRSKWSNDYGVSVKSRITIIPDTSKNQFSLQLNSVTPEDTAVYYCARSSSWYQIFDYWGQGTLVTVSSTSGQAGQHHHHHHGAYPYDVPDYAS
notes: as for B1
no binding: SLAMF9 protein | [1] | [2]
